Assay results published in US20100160228A1 (VALTION TEKNILLINEN TUTKIMUSKESKUS, published 2010).

Biological target: T1, VEGFR1, stably expressed in PAE cells (PAE-Flt1) (UniProt P17948 27-1338, limits assumed)
T1 construct: whole, on cells
Assay: co-immunoprecipitation with anti-TCPTP from PAE-Flt1 cells transfected with the substrate-trapping mutant, immunoblot
Procedure: Immunoprecipitations. […] After washings, the immunocomplexes were resolved on SDS-PAGE and subjected to immunoblotting. Aliquots of the original lysates (5% from IP input) were analyzed in parallel to control for protein expression.

T1 sequence (P17948 27-1338 limits assumed): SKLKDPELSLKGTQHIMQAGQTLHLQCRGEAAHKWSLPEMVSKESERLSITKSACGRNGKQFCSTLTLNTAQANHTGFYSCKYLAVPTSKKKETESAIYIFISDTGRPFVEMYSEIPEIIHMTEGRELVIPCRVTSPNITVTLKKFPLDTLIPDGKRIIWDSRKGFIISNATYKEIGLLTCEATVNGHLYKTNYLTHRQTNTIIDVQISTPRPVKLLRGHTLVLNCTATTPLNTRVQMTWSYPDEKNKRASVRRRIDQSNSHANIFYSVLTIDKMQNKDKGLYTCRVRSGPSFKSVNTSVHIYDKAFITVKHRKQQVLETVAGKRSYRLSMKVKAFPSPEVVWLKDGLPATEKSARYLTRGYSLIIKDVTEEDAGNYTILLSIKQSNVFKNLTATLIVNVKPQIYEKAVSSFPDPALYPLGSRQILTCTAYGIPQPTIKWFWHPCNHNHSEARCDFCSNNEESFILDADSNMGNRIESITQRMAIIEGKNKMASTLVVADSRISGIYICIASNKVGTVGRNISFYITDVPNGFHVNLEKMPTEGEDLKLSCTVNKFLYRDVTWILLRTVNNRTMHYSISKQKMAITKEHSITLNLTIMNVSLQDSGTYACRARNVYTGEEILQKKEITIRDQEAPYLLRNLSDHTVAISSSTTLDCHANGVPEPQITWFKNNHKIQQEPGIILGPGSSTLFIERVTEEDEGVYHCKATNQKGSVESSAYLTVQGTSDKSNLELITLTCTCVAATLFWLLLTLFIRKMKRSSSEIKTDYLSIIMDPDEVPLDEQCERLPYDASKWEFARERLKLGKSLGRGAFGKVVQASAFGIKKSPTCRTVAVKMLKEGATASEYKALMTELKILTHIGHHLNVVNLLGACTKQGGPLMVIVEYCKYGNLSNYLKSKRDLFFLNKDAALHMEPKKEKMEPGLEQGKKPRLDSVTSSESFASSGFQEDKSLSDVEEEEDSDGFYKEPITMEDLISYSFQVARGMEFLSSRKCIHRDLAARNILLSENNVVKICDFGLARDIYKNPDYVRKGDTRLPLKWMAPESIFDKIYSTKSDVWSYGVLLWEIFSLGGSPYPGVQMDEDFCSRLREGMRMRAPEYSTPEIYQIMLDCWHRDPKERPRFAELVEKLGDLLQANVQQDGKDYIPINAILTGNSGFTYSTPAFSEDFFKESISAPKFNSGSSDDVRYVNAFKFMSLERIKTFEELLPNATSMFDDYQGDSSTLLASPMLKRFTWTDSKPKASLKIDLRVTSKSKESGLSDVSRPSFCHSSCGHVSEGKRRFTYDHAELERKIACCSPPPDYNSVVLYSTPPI

B1: substrate-trapping mutant of TCPTP (TCPTP-D182A) (enzyme, UniProt P17706-2 1-387, looked up)
chain: MPTTIEREFEELDTQRRWQPLYLEIRNESHDYPHRVAKFPENRNRNRYRDVSPYDHSRVKLQNAENDYINASLVDIEEAQRSYILTQGPLPNTCCHFWLMVWQQKTKAVVMLNRIVEKESVKCAQYWPTDDQEMLFKETGFSVKLLSEDVKSYYTVHLLQLENINSGETRTISHFHYTTWPAFGVPESPASFLNFLFKVRESGSLNPDHGPAVIHCSAGIGRSGTFSLVDTCLVLMEKGDDINIKQVLLNMRKYRMGLIQTPDQLRFSYMAIIEGAKCIKGDSSIQKRWKELSKEDLSPAFDHSPNKIMTEKYNGNRIGLEEEKLTGDRCTGLSSKMQDTMEENSESALRKRIREDRKATTAQKVQQMKQRLNENERKRKRPRLTDT
notes: Expressed by transient transfection in HEK293 or PAE-Flt1 cells and immunoprecipitated from lysates with anti-TCPTP; also called pCG-TC45-D182A; T-cell protein tyrosine phosphatase D182A
binding result: no binding
